Source: US20180030144A1 (INNATE PHARMA, published 2018)

Assays:
[1] = molecular target: T1, mouse CD73 expressed on a recombinant host cell line (mouse, UniProt Q61503 29-551); assay: flow cytometry titration on a mouse-CD73-expressing recombinant host cell line, median of fluorescence
T1 construct: whole, on cells; also called moCD73
T1 sequence (looked up): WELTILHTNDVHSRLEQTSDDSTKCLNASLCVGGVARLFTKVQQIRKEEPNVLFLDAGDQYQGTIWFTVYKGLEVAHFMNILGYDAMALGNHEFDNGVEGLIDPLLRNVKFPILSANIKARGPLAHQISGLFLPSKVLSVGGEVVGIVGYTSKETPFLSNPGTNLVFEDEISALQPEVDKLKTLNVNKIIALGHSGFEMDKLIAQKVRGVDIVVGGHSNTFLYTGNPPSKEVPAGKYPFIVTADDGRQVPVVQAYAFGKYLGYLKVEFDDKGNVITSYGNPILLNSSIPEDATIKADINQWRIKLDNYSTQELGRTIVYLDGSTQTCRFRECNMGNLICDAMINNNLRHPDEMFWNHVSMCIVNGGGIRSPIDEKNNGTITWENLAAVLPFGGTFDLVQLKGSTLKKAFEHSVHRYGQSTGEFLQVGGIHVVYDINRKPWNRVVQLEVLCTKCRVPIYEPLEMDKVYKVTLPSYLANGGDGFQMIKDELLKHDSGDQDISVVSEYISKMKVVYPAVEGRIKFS

[2] = molecular target: T2, human CD73 expressed at the cell surface (human, UniProt P21589 27-549); assay: cell-based or functional assay
T2 sequence: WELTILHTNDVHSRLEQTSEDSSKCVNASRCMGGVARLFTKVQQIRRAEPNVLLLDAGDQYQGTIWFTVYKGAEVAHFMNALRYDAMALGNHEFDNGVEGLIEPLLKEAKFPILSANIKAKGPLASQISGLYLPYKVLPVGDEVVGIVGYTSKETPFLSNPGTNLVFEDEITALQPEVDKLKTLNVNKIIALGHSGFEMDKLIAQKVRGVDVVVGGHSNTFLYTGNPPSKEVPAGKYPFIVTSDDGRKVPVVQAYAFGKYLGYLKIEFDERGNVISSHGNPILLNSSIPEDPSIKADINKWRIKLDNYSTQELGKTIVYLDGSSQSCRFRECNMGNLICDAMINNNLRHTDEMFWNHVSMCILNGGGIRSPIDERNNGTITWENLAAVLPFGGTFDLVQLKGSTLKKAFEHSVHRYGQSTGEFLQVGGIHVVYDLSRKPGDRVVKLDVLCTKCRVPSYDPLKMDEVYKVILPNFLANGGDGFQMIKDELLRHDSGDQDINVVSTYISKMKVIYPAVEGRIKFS

[3] = molecular target: T2, human CD73 expressed at the cell surface; assay: flow cytometry on MDA-MB-231 cells, medium (no APCP)
Description: (§1) MDA-MB-231 cells are available from ATCC (reference HTB-26). 10⁵ cells resuspended in PBS/0.2% BSA/0.02% NaN3 (named “staining buffer”) are distributed into round bottom 96W-microplates. Dose-range of anti-CD73 antibodies was added to the plates and cells are incubated for 45 min at 4° C. Cells were washed three times in staining buffer by spinning plates at 400 g for 3 min at 4° C. PE-coupled goat anti-mouse or goat anti-human IgG Fc fragment secondary antibodies (Beckman Coulter) diluted in staining buffer were added to the cells and plates are incubated for 30 additional minutes at 4° C. Cells were washed three times as described above and analyzed on an Accury C6 flow cytometer equipped with an HTFC plate reader.
Cells were pre-incubated at 37° C. for 30 minutes in the presence or not of 200 μM adenosine 5′-(α,β-methylene)diphosphate (APCP), followed by addition of antibodies. APCP is an analog of ADP and binds irreversibly to the active site of CD73. When bound by APCP, CD73 changes conformation from an “open” conformation to a “closed” conformation. mAbs 11E1, 8C7, 3C12 and 6E1 bound MDA-MB-231 cells with good affinity both in the presence and absence of APCP. In the presence of APCP, the EC50 was similar to that observed in the absence of APCP. The plateau for maximal binding of 11E1, 8C7, 3C12 and 6E1 was higher in the absence of APCP than in the presence of APCP, while the inverse was true for AD2.

[4] = molecular target: T3, recombinant human CD73-His extracellular domain protein (soluble dimer) (human, UniProt P21589 27-547); assay: ELISA, plate-coated recombinant human CD73
T3 construct: Purified as a dimer; also called huCD73; soluble recombinant human CD73
T3 sequence: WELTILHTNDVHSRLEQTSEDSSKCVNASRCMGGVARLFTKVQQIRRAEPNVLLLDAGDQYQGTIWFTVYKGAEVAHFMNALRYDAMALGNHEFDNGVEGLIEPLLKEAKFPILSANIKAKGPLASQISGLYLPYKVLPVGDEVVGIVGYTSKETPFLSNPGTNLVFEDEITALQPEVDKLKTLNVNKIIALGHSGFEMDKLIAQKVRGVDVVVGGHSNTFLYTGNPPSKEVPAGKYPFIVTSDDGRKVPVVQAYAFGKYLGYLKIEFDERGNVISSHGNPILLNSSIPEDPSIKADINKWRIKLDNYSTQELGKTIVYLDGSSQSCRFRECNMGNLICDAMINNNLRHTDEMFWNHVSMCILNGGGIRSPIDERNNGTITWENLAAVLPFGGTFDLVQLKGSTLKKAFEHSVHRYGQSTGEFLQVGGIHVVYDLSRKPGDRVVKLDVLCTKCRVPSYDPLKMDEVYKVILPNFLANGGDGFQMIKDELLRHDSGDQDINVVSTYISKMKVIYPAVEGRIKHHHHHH
Description: 5 μg/ml of recombinant human CD73 protein (IPH, isoform E6) was coated on MaxiSorp ELISA plates (Nunc) in PBS, overnight at 4° C. Plates were washed 5 times in washing buffer (PBS, 0.05% Tween20) and unspecific sites were saturated by adding 200 μl/w TBS starting block buffer (Thermo Ficher). Dose-range of anti-CD73 antibodies were incubated for 2 h at 37° C. Plates were washed 5 times in washing buffer and HRP-coupled goat anti-human or goat anti-mouse IgG Fc fragment secondary antibody (Bethyl, 1/50000) was added for 1 hr at RT to detect bound anti-CD73 antibodies. […] The enzymatic reaction was stopped by adding HCl 1M and O.D. was measured at 450 nm. Optical density vs. anti-CD73 Ab concentration was plotted on graphs and EC50 is calculated using GraphPad Prism software.

[5] = molecular target: T2, human CD73 expressed at the cell surface; assay: flow cytometry titration on MDA-MB-231 cells (endogenous CD73), median of fluorescence
Description: as §1
Median of fluorescence vs. antibodies concentration was plotted on graphs and EC50 is calculated using Graph Pad Prism program.

Row | Binder | binding result [1] | decrease of the enzymatic activity of cellular CD73 (MDA-MB-231 cells) [2] [%] | EC50 [3] [µg/mL] | EC50 [4] [µg/mL] | EC50 (read off the curve) [5] [µg/mL]
1 | antibody 11E1 (antibody, human IgG1, V domains shown, Produced as chimeric human IgG1 with heavy chain N297Q (Kabat EU numbering); also called 1E11) VH: EIQLQQSGPELVKPGASVKVSCKASGYAFTSYNMYWVKQSHGKSLEWIGYIDPYNGGTSYNQKFKGKATLTVDKSSSTAYMHLNSLTSEDSAVYYCARGYGNYKAWFAYWGQGTLVTVSA VL: DAVMTQTPKFLLVSAGDRVTITCKASQSVTNDVAWYQQKPGQSPKLLIYYASNRYTGVPDRFTGSGYGTDFTFTISTVQAEDLAVYFCQQDYSSLTFGAGTKLELK | no binding (tested: about 30-40 µg/ml) | > 75 | 0.0611 | 0.012 | ~0.1
2 | antibody 6E1 (antibody, human IgG1, V domains shown, Produced as chimeric human IgG1 with heavy chain N297Q (Kabat EU numbering)) VH: EFQLQQSGPELVKPGASVKVSCKASGYAFTSYNMYWVKQSHGKRLEWIGYIDPYNGGSSYNQKFKGKATLTVDKSSSTAYMHLNNLTSEDSAVYYCARGYNNYKAWFAYWGQGTLVTVSA VL: SIVMTQTPKFLLVSAGDRVTITCKASQSVTNDVAWYQQKPGQSPKLLIYYASNRYTGVPDRFTGSGYGTDFTFTISTMQAEDLAVYFCQQDYSSLTFGAGTKLELK | no binding (tested: about 30-40 µg/ml) | > 75 | 0.0584 | 0.014 | ~0.1
3 | antibody 3C12 (antibody, human IgG1, V domains shown, Produced as chimeric human IgG1 with heavy chain N297Q (Kabat EU numbering); RTVAAP)) VH: QIQLQQSGPELVKPGASVKVSCKASGYAFASYNMNWVKQSHGKSLDWIGYIDPYNGGSSYNLTFKGKATLTVDKSSTTAYMHLNSLTSEDSAVYYCARGYGNYKAWFAYWGQGTLVTVSA VL: DVVMTQTPKFLLVSAGDRVTITCKASQSVSNDVAWYQQKPGQSPKLLIYYASTRYTGVPDRFTGSGYGTDFTFTISTVQAEDLAVYFCQQDYSSLTFGAGTKLELKR | no binding (tested: about 30 µg/ml) | > 75 | 0.0572 | 0.014 | ~0.07
